In patent publication US20150211000A1 (GLYCOFI, published 2015):

Biological target: T1, PCSK9 (Proprotein convertase subtilisin/kexin type 9) antigen, Alexa 647-conjugated (Pan troglodytes (Chimpanzee); Homo …, UniProt A8T644 31-152; Q8NBP7 153-692, Alexa 647-conjugated)
T1 construct: also called fluorophore-conjugated PCSK9 antigen; fluorophore-labeled PCSK-9 antigen
Assay: flow cytometry / FACS of Fab-displaying Pichia pastoris labeled with Alexa 647-conjugated PCSK9

T1 sequence (A8T644 31-152 limits assumed, chain 1 of 2): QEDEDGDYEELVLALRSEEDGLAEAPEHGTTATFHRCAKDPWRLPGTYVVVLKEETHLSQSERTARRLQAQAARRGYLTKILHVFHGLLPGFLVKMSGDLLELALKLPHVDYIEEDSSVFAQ
T1 sequence (A8T644 other isoform, or with tags, fused parts or gaps limits assumed, chain 2 of 2): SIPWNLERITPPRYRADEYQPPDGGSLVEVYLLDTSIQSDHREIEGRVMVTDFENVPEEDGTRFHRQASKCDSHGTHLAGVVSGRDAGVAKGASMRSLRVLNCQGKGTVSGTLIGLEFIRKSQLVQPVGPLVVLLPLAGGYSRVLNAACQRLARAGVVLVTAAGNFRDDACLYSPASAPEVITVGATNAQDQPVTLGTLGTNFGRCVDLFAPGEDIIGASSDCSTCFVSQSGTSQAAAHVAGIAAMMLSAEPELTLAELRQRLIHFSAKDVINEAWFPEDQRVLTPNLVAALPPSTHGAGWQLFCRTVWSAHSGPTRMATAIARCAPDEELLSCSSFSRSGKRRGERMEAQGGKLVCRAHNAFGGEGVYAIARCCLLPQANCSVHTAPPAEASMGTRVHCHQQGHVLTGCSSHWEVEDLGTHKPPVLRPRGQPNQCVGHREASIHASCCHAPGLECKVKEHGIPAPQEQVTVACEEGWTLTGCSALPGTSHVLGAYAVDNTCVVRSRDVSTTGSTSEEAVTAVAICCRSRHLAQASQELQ

B1: anti-CD20 (Genmab) Fab fragment, heavy chain fused to GR1 coiled coil peptide, displayed on Pichia pastoris strain YGLY7761 (Fab, V domains shown)
VH: AVQLVESGGGLVQPGRSLRLSCAASGFTFGDYTMHWVRQAPGKGLEWVSGISWNSGSIGYADSVKGRFTISRDNAKNSLYLQMNSLRAEDTALYYCTKDNQYGSGSTYGLGVWGQGTLVTVSS
VL: EIVLTQSPATLSLSPGERATLSCRASQSVSSYLAWYQQKPGQAPRLLIYDASNRATGIPARFSGSGSGTDFTLTISSLEPEDFAVYYCQQRSNWPLTFGGGTKVEIKR
notes: also called α-CD20; anti-CD20 Fab fragment Genmab; not shown: linker and tags of vector pGLY3958 between CH1 and GR1
  binding result: no binding
